Measured values published in patent US20120238493A1 (INDIANA UNIVERSITY RESEARCH AND TECHNOLOGY, published 2012).
Where two headings read alike, the source gives them in different places. *1 amine or outer side, *2 acyl side, *3 side chain or, on linkers, in order; H or OH if unused. Where no end group is shown, it is not given here. Side-chain parts run from the residue outwards. [ ]: non-standard residue; d: D form. The star is where a group is joined. γGlu = O=C(O)[C@H](CCC(=O)[*:2])N[*:1]; Palmitoyl = CCCCCCCCCCCCCCCC(=O)*; Suc = O=C(CCC(=O)[*:2])[*:1]; Aib = CC(C)(N)C(=O)O; βAla = NCCC(=O)O

Tests used:
Assay in all cases: cell-based or functional assay
[1] = molecular target: T1, glucagon receptor (UniProt P47871 26-477, limits assumed)
T1 sequence (P47871 26-477 limits assumed): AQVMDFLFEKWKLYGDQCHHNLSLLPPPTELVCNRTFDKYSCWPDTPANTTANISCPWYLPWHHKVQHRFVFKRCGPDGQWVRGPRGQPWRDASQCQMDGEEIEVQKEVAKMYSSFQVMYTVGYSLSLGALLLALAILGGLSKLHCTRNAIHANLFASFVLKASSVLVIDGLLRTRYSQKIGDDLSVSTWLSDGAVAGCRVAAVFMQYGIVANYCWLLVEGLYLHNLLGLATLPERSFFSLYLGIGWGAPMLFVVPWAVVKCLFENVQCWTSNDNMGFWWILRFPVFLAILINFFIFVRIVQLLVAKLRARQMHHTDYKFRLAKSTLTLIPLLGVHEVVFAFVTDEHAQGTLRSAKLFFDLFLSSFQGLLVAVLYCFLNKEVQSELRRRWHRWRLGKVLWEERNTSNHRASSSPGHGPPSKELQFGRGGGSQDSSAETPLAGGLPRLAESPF

[2] = molecular target: T2, GLP-1 receptor (UniProt P43220 24-463, limits assumed)
Target sequence in this assay (P43220 24-463 limits assumed): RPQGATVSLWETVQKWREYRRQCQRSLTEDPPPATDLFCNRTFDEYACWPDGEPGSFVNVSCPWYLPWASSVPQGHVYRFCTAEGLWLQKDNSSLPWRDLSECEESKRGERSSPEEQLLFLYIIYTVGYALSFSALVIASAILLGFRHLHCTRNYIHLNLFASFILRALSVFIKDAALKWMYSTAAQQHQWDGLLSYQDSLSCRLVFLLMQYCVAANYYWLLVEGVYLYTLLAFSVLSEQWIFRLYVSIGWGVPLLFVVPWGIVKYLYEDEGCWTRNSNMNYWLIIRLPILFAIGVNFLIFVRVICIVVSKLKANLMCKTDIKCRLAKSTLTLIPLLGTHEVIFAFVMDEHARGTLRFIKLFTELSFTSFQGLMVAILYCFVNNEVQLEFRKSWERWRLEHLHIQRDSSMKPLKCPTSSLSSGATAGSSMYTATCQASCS

[3] = molecular target: T3, GIP receptor (UniProt P48546 22-466, limits assumed)
T3 sequence (looked up): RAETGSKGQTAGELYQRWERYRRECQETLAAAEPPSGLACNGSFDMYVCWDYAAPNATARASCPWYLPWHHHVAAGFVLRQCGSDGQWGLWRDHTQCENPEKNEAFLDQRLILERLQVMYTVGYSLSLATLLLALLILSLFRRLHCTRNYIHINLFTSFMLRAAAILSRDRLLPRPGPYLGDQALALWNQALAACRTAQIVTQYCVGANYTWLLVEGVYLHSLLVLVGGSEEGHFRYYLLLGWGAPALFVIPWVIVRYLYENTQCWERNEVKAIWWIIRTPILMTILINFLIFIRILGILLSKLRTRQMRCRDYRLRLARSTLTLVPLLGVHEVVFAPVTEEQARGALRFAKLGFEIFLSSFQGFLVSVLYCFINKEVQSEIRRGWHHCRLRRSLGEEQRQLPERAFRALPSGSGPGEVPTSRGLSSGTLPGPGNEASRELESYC

[4] = molecular target: T1, glucagon receptor; remark: listed apart in the source
[5] = molecular target: T2, GLP-1 receptor; remark: listed apart in the source
[6] = molecular target: T3, GIP receptor; remark: listed apart in the source
[7] = molecular target: T1, glucagon receptor; remark: listed apart in the source
[8] = molecular target: T2, GLP-1 receptor; remark: listed apart in the source
[9] = molecular target: T3, GIP receptor; remark: listed apart in the source
[10] = molecular target: T1, glucagon receptor; remark: listed apart in the source
[11] = molecular target: T2, GLP-1 receptor; remark: listed apart in the source
[12] = molecular target: T3, GIP receptor; remark: listed apart in the source
[13] = molecular target: T1, glucagon receptor; remark: listed apart in the source
[14] = molecular target: T2, GLP-1 receptor; remark: listed apart in the source
[15] = molecular target: T3, GIP receptor; remark: listed apart in the source

Y[Aib]EGTFTSDYSIYLDKQAA[Aib]EFVNWLLAGGPSSGAPPPSK([Suc-C18])G-NH2 [peptide of SEQ ID NO: 142]
EC50 (cAMP reporter) [1]: 121 pM | EC50 (cAMP reporter) [2]: 4 pM | EC50 (cAMP reporter) [3]: 1 pM

Y[Aib]EGTFTSDYSIYLDKQAA[Aib]EFVNWLLAGGPSSGAPPPSK([βAla-Suc-Palmitoyl])G-NH2 [peptide of SEQ ID NO: 141]
EC50 (cAMP reporter) [1]: 58 pM | EC50 (cAMP reporter) [2]: 1 pM | EC50 (cAMP reporter) [3]: 2 pM

B1: peptide of SEQ ID NO: 207 (peptide)
peptide: H[Aib]QGTFTSDK([γGlu-γGlu-Palmitoyl])SKYLDERAAQDFVQWLLDGGPSSGAPPPSG-NH2
modifications: N-terminus assumed
SMILES: CCCCCCCCCCCCCCCC(=O)N[C@@H](CCC(=O)N[C@@H](CCC(=O)NCCCC[C@H](NC(=O)[C@H](CC(=O)O)NC(=O)[C@H](CO)NC(=O)[C@@H](NC(=O)[C@H](Cc1ccccc1)NC(=O)[C@@H](NC(=O)CNC(=O)[C@H](CCC(N)=O)NC(=O)C(C)(C)NC(=O)[C@@H](N)Cc1c[nH]cn1)[C@@H](C)O)[C@@H](C)O)C(=O)N[C@@H](CO)C(=O)N[C@@H](CCCCN)C(=O)N[C@@H](Cc1ccc(O)cc1)C(=O)N[C@@H](CC(C)C)C(=O)N[C@@H](CC(=O)O)C(=O)N[C@@H](CCC(=O)O)C(=O)N[C@@H](CCCNC(=N)N)C(=O)N[C@@H](C)C(=O)N[C@@H](C)C(=O)N[C@@H](CCC(N)=O)C(=O)N[C@@H](CC(=O)O)C(=O)N[C@@H](Cc1ccccc1)C(=O)N[C@H](C(=O)N[C@@H](CCC(N)=O)C(=O)N[C@@H](Cc1c[nH]c2ccccc12)C(=O)N[C@@H](CC(C)C)C(=O)N[C@@H](CC(C)C)C(=O)N[C@@H](CC(=O)O)C(=O)NCC(=O)NCC(=O)N1CCC[C@H]1C(=O)N[C@@H](CO)C(=O)N[C@@H](CO)C(=O)NCC(=O)N[C@@H](C)C(=O)N1CCC[C@H]1C(=O)N1CCC[C@H]1C(=O)N1CCC[C@H]1C(=O)N[C@@H](CO)C(=O)NCC(N)=O)C(C)C)C(=O)O)C(=O)O
EC50 (cAMP reporter) [4]: 5 pM | EC50 (cAMP reporter) [5]: 2 pM | EC50 (cAMP reporter) [6]: 15 pM

H[Aib]QGTFTSDYSKYLDERAAQDFVQWLLDAGPSSGAPPPSK([γGlu-γGlu-Palmitoyl])G-NH2 [peptide of SEQ ID NO: 204]
EC50 (cAMP reporter) [4]: 3 pM | EC50 (cAMP reporter) [5]: 1 pM | EC50 (cAMP reporter) [6]: 69 pM

B2: Analog No. 37: Aib2, K10acyl, E16, Aib20, E21, L27, D28 (SEQ ID NO: 31) (peptide)
peptide: H[Aib]QGTFTSDK([γGlu-Palmitoyl])SKYLDERRA[Aib]EFVQWLLDT-NH2
modifications: N-terminus assumed
SMILES: CCCCCCCCCCCCCCCC(=O)N[C@@H](CCC(=O)NCCCC[C@H](NC(=O)[C@H](CC(=O)O)NC(=O)[C@H](CO)NC(=O)[C@@H](NC(=O)[C@H](Cc1ccccc1)NC(=O)[C@@H](NC(=O)CNC(=O)[C@H](CCC(N)=O)NC(=O)C(C)(C)NC(=O)[C@@H](N)Cc1c[nH]cn1)[C@@H](C)O)[C@@H](C)O)C(=O)N[C@@H](CO)C(=O)N[C@@H](CCCCN)C(=O)N[C@@H](Cc1ccc(O)cc1)C(=O)N[C@@H](CC(C)C)C(=O)N[C@@H](CC(=O)O)C(=O)N[C@@H](CCC(=O)O)C(=O)N[C@@H](CCCNC(=N)N)C(=O)N[C@@H](CCCNC(=N)N)C(=O)N[C@@H](C)C(=O)NC(C)(C)C(=O)N[C@@H](CCC(=O)O)C(=O)N[C@@H](Cc1ccccc1)C(=O)N[C@H](C(=O)N[C@@H](CCC(N)=O)C(=O)N[C@@H](Cc1c[nH]c2ccccc12)C(=O)N[C@@H](CC(C)C)C(=O)N[C@@H](CC(C)C)C(=O)N[C@@H](CC(=O)O)C(=O)N[C@H](C(N)=O)[C@@H](C)O)C(C)C)C(=O)O
EC50 (cAMP reporter) [7]: 8 pM | EC50 (cAMP reporter) [8]: 4.4 pM | EC50 (cAMP reporter) [9]: 8 pM | EC50 (cAMP reporter) [10]: 8 pM | EC50 (cAMP reporter) [11]: 4.4 pM | EC50 (cAMP reporter) [12]: 8 pM

B3: dual acylated peptide of SEQ ID NO: 160 (peptide)
peptide: HXQGTFTSDKSKYLDERAAQDFVQWLLDGGPSSGAPPPS
modifications: aib at 2; Lys10 carrying two acylations in a branched formation, K*K(rEC16)2; amide
EC50 (cAMP, nmole) [13]: 0.024 nmol | EC50 (cAMP, nmole) [14]: 0.007 nmol | EC50 (cAMP, nmole) [15]: 0.015 nmol

B4: dual acylated peptide of SEQ ID NO: 162 (peptide)
peptide: HXQGTFTSDKSKYLDERAAQDFVQWLLDGGPSSGAPPPS
modifications: aib at 2; Lys10 carrying two acylations in a linear formation, K*(C12-rEC16); amide
EC50 (cAMP, nmole) [13]: 0.008 nmol | EC50 (cAMP, nmole) [14]: 0.003 nmol | EC50 (cAMP, nmole) [15]: 0.033 nmol

YXEGTFTSDXSIYLDKQAAXEFVNWLLAGGPSSGAPPPS (aib at 2 and 20; 4-aminoPhe at 10 acylated F(4-aminoγEγEC16); NH2) [peptide of SEQ ID NO: 143]
EC50 (cAMP reporter) [1]: 165 pM | EC50 (cAMP reporter) [2]: 2 pM | EC50 (cAMP reporter) [3]: 3 pM

YXEGTFTSDXSIYLDKQAAXEFVNWLLAGGPSSGAPPPS (aib at 2 and 20; 4-aminoPhe at 10, F(4amino-succinoylC16); NH2) [peptide of SEQ ID NO: 144]
EC50 (cAMP reporter) [1]: > 500 pM | EC50 (cAMP reporter) [2]: 4 pM | EC50 (cAMP reporter) [3]: 13 pM

Y[Aib]EGTFTSDYSIYLDKQAA[Aib]EFVNWLLAGGPSSGAPPPSK(Palmitoyl)G-NH2 [peptide of SEQ ID NO: 139]
EC50 (cAMP reporter) [1]: 203 pM | EC50 (cAMP reporter) [2]: 5 pM | EC50 (cAMP reporter) [3]: 1 pM

Y[Aib]EGTFTSDYSIYLDKQAA[Aib]EFVNWLLAGGPSSGAPPPSK([Suc-Palmitoyl])G-NH2 [peptide of SEQ ID NO: 140]
EC50 (cAMP reporter) [1]: 77 pM | EC50 (cAMP reporter) [2]: 1 pM | EC50 (cAMP reporter) [3]: 1 pM

B5: peptide of SEQ ID NO: 205 (peptide)
peptide: H[Aib]QGTFTSDK([γGlu-Palmitoyl])SKYLDERAAQDFVQWLLDGGPSSGAPPPSG-NH2
modifications: N-terminus assumed
SMILES: CCCCCCCCCCCCCCCC(=O)N[C@@H](CCC(=O)NCCCC[C@H](NC(=O)[C@H](CC(=O)O)NC(=O)[C@H](CO)NC(=O)[C@@H](NC(=O)[C@H](Cc1ccccc1)NC(=O)[C@@H](NC(=O)CNC(=O)[C@H](CCC(N)=O)NC(=O)C(C)(C)NC(=O)[C@@H](N)Cc1c[nH]cn1)[C@@H](C)O)[C@@H](C)O)C(=O)N[C@@H](CO)C(=O)N[C@@H](CCCCN)C(=O)N[C@@H](Cc1ccc(O)cc1)C(=O)N[C@@H](CC(C)C)C(=O)N[C@@H](CC(=O)O)C(=O)N[C@@H](CCC(=O)O)C(=O)N[C@@H](CCCNC(=N)N)C(=O)N[C@@H](C)C(=O)N[C@@H](C)C(=O)N[C@@H](CCC(N)=O)C(=O)N[C@@H](CC(=O)O)C(=O)N[C@@H](Cc1ccccc1)C(=O)N[C@H](C(=O)N[C@@H](CCC(N)=O)C(=O)N[C@@H](Cc1c[nH]c2ccccc12)C(=O)N[C@@H](CC(C)C)C(=O)N[C@@H](CC(C)C)C(=O)N[C@@H](CC(=O)O)C(=O)NCC(=O)NCC(=O)N1CCC[C@H]1C(=O)N[C@@H](CO)C(=O)N[C@@H](CO)C(=O)NCC(=O)N[C@@H](C)C(=O)N1CCC[C@H]1C(=O)N1CCC[C@H]1C(=O)N1CCC[C@H]1C(=O)N[C@@H](CO)C(=O)NCC(N)=O)C(C)C)C(=O)O
EC50 (cAMP reporter) [4]: 5 pM | EC50 (cAMP reporter) [5]: 2 pM | EC50 (cAMP reporter) [6]: 4 pM

H[Aib]QGTFTSDYSKYLDERAAQDFVQWLLDGGPSSGAPPPSK-NH2 (also: Lys40 branched dual acylation K*K(γE-C16)2) [dual acylated peptide of SEQ ID NO: 161]
EC50 (cAMP, nmole) [13]: 0.011 nmol | EC50 (cAMP, nmole) [14]: 0.007 nmol | EC50 (cAMP, nmole) [15]: 0.01 nmol

H[Aib]QGTFTSDYSKYLDERAAQDFVQWLLAGGPSSGAPPPSK([γGlu-γGlu-Palmitoyl])G-NH2 [peptide of SEQ ID NO: 203]
EC50 (cAMP reporter) [4]: 3 pM | EC50 (cAMP reporter) [5]: 1 pM | EC50 (cAMP reporter) [6]: 7 pM
